Experimental data reported in FireProtDB (doi:10.1073/pnas.84.13.4441).

B1: Tryptophan synthase alpha chain, P0A877 (parent)
chain: MERYESLFAQLKERKEGAFVPFVTLGDPGIEQSLKIIDTLIEAGADALELGIPFSDPLADGPTIQNATLRAFAAGVTPAQCFEMLALIRQKHPTIPIGLLMYANLVFNKGIDEFYAQCEKVGVDSVLVADVPVEESAPFRQAALRHNVAPIFICPPNADDDLLRQIASYGRGYTYLLSRAGVTGAENRAALPLNHLVAKLKEYNAAPPLQGFGISAPDQVKAAIDAGAAGAISGSAIVKIIEQHINEPEKMLAALKVFVQPMKAATRS

Variants of: B1
Details: Escherichia coli (strain K12), 25 °C, GdnHCl, CD, Potassium phosphate 20 mM, reversible: yes, structure 1WQ5, whole UniProt chain shown

Row | Variant | ddG of mutation (higher = less stable) (pH 7) [kcal/mol] | unfolding free energy (pH 7) [kcal/mol] | ddG of mutation (higher = less stable) (pH 9) [kcal/mol] | unfolding free energy (pH 9) [kcal/mol]
1 | MERYESLFAQLKERKEGAFVPFVTLGDPGIEQSLKIIDTLIEAGADALCLGIPFSDPLADGPTIQNATLRAFAAGVTPAQCFEMLALIRQKHPTIPIGLLMYANLVFNKGIDEFYAQCEKVGVDSVLVADVPVEESAPFRQAALRHNVAPIFICPPNADDDLLRQIASYGRGYTYLLSRAGVTGAENRAALPLNHLVAKLKEYNAAPPLQGFGISAPDQVKAAIDAGAAGAISGSAIVKIIEQHINEPEKMLAALKVFVQPMKAATRS [E49C] | -0.01 | 18.2 | 0.13 | 17.8
2 | MERYESLFAQLKERKEGAFVPFVTLGDPGIEQSLKIIDTLIEAGADALLLGIPFSDPLADGPTIQNATLRAFAAGVTPAQCFEMLALIRQKHPTIPIGLLMYANLVFNKGIDEFYAQCEKVGVDSVLVADVPVEESAPFRQAALRHNVAPIFICPPNADDDLLRQIASYGRGYTYLLSRAGVTGAENRAALPLNHLVAKLKEYNAAPPLQGFGISAPDQVKAAIDAGAAGAISGSAIVKIIEQHINEPEKMLAALKVFVQPMKAATRS [E49L] | -0.44 | 18.6 | -1.04 | 19
3 | MERYESLFAQLKERKEGAFVPFVTLGDPGIEQSLKIIDTLIEAGADALMLGIPFSDPLADGPTIQNATLRAFAAGVTPAQCFEMLALIRQKHPTIPIGLLMYANLVFNKGIDEFYAQCEKVGVDSVLVADVPVEESAPFRQAALRHNVAPIFICPPNADDDLLRQIASYGRGYTYLLSRAGVTGAENRAALPLNHLVAKLKEYNAAPPLQGFGISAPDQVKAAIDAGAAGAISGSAIVKIIEQHINEPEKMLAALKVFVQPMKAATRS [E49M] | 0.05 | 18.1 | -0.52 | 18.5
4 | MERYESLFAQLKERKEGAFVPFVTLGDPGIEQSLKIIDTLIEAGADALALGIPFSDPLADGPTIQNATLRAFAAGVTPAQCFEMLALIRQKHPTIPIGLLMYANLVFNKGIDEFYAQCEKVGVDSVLVADVPVEESAPFRQAALRHNVAPIFICPPNADDDLLRQIASYGRGYTYLLSRAGVTGAENRAALPLNHLVAKLKEYNAAPPLQGFGISAPDQVKAAIDAGAAGAISGSAIVKIIEQHINEPEKMLAALKVFVQPMKAATRS [E49A] | 0.08 | 18.1 | -0.59 | 18.6
5 | MERYESLFAQLKERKEGAFVPFVTLGDPGIEQSLKIIDTLIEAGADALQLGIPFSDPLADGPTIQNATLRAFAAGVTPAQCFEMLALIRQKHPTIPIGLLMYANLVFNKGIDEFYAQCEKVGVDSVLVADVPVEESAPFRQAALRHNVAPIFICPPNADDDLLRQIASYGRGYTYLLSRAGVTGAENRAALPLNHLVAKLKEYNAAPPLQGFGISAPDQVKAAIDAGAAGAISGSAIVKIIEQHINEPEKMLAALKVFVQPMKAATRS [E49Q] | 0.23 | 17.9 | – | –
6 | MERYESLFAQLKERKEGAFVPFVTLGDPGIEQSLKIIDTLIEAGADALSLGIPFSDPLADGPTIQNATLRAFAAGVTPAQCFEMLALIRQKHPTIPIGLLMYANLVFNKGIDEFYAQCEKVGVDSVLVADVPVEESAPFRQAALRHNVAPIFICPPNADDDLLRQIASYGRGYTYLLSRAGVTGAENRAALPLNHLVAKLKEYNAAPPLQGFGISAPDQVKAAIDAGAAGAISGSAIVKIIEQHINEPEKMLAALKVFVQPMKAATRS [E49S] | 0.59 | 17.6 | -0.09 | 18.1
7 | MERYESLFAQLKERKEGAFVPFVTLGDPGIEQSLKIIDTLIEAGADALILGIPFSDPLADGPTIQNATLRAFAAGVTPAQCFEMLALIRQKHPTIPIGLLMYANLVFNKGIDEFYAQCEKVGVDSVLVADVPVEESAPFRQAALRHNVAPIFICPPNADDDLLRQIASYGRGYTYLLSRAGVTGAENRAALPLNHLVAKLKEYNAAPPLQGFGISAPDQVKAAIDAGAAGAISGSAIVKIIEQHINEPEKMLAALKVFVQPMKAATRS [E49I] | -0.46 | 18.6 | -1.24 | 19.2
8 | MERYESLFAQLKERKEGAFVPFVTLGDPGIEQSLKIIDTLIEAGADALWLGIPFSDPLADGPTIQNATLRAFAAGVTPAQCFEMLALIRQKHPTIPIGLLMYANLVFNKGIDEFYAQCEKVGVDSVLVADVPVEESAPFRQAALRHNVAPIFICPPNADDDLLRQIASYGRGYTYLLSRAGVTGAENRAALPLNHLVAKLKEYNAAPPLQGFGISAPDQVKAAIDAGAAGAISGSAIVKIIEQHINEPEKMLAALKVFVQPMKAATRS [E49W] | 0.97 | 17.2 | 1.1 | 16.9
9 | MERYESLFAQLKERKEGAFVPFVTLGDPGIEQSLKIIDTLIEAGADALGLGIPFSDPLADGPTIQNATLRAFAAGVTPAQCFEMLALIRQKHPTIPIGLLMYANLVFNKGIDEFYAQCEKVGVDSVLVADVPVEESAPFRQAALRHNVAPIFICPPNADDDLLRQIASYGRGYTYLLSRAGVTGAENRAALPLNHLVAKLKEYNAAPPLQGFGISAPDQVKAAIDAGAAGAISGSAIVKIIEQHINEPEKMLAALKVFVQPMKAATRS [E49G] | -0.08 | 18.2 | -0.6 | 18.6
10 | MERYESLFAQLKERKEGAFVPFVTLGDPGIEQSLKIIDTLIEAGADALHLGIPFSDPLADGPTIQNATLRAFAAGVTPAQCFEMLALIRQKHPTIPIGLLMYANLVFNKGIDEFYAQCEKVGVDSVLVADVPVEESAPFRQAALRHNVAPIFICPPNADDDLLRQIASYGRGYTYLLSRAGVTGAENRAALPLNHLVAKLKEYNAAPPLQGFGISAPDQVKAAIDAGAAGAISGSAIVKIIEQHINEPEKMLAALKVFVQPMKAATRS [E49H] | -0.33 | 18.5 | -0.67 | 18.6
11 | MERYESLFAQLKERKEGAFVPFVTLGDPGIEQSLKIIDTLIEAGADALDLGIPFSDPLADGPTIQNATLRAFAAGVTPAQCFEMLALIRQKHPTIPIGLLMYANLVFNKGIDEFYAQCEKVGVDSVLVADVPVEESAPFRQAALRHNVAPIFICPPNADDDLLRQIASYGRGYTYLLSRAGVTGAENRAALPLNHLVAKLKEYNAAPPLQGFGISAPDQVKAAIDAGAAGAISGSAIVKIIEQHINEPEKMLAALKVFVQPMKAATRS [E49D] | 0.8 | 17.4 | 0.03 | 17.9
12 | MERYESLFAQLKERKEGAFVPFVTLGDPGIEQSLKIIDTLIEAGADALPLGIPFSDPLADGPTIQNATLRAFAAGVTPAQCFEMLALIRQKHPTIPIGLLMYANLVFNKGIDEFYAQCEKVGVDSVLVADVPVEESAPFRQAALRHNVAPIFICPPNADDDLLRQIASYGRGYTYLLSRAGVTGAENRAALPLNHLVAKLKEYNAAPPLQGFGISAPDQVKAAIDAGAAGAISGSAIVKIIEQHINEPEKMLAALKVFVQPMKAATRS [E49P] | 0 | 18.2 | -0.8 | 18.8
